These results are taken from publication PMC4420465, “A Novel Type II NAD^+-Specific Isocitrate Dehydrogenase from the Marine Bacterium Congregibacter litoralis KT71” (PLoS ONE, 2015).

In general, stoichiometry N refers to the number of molecules, sites or subunits per partner or assembly. Broadly, the Km is the concentration of substrate that gives half-maximal velocity. The kcat is the number of substrate molecules converted per active site and unit of time at saturation. For orientation: kcat/Km means the turnover number divided by the Michaelis constant.

The target in data set [1] is Congregibacter litoralis KT71 NAD+-specific isocitrate dehydrogenase (recombinant ClIDH) (Congregibacter litoralis KT71). In words: AUC; sedimentation velocity, Beckman XL-A, 20°C, 116,000 g, continuous c(s) distribution; protein of more than 90% purity after gel filtration; single run.
Data set [2] shares this target. Briefly: SEC; gel filtration on a 10/300 Superdex 200 column, 0.05 M potassium phosphate buffer (pH 7.0), 0.15 M NaCl, 0.01% sodium azide; calibrated with ovalbumin, conalbumin, aldolase, ferritin, thyroglobulin. (In gel filtration, larger molecules generally elute earlier.)
Substrate in data set [3]: NC(=O)c1ccc[n+]([C@@H]2O[C@H](COP(=O)(O)OP(=O)(O)OC[C@H]3O[C@@H](n4cnc5c(N)ncnc54)[C@H](O)[C@@H]3O)[C@@H](O)[C@H]2O)c1
Briefly: purified protein. It is filed as biochemical, Congregibacter litoralis. As to conditions: Mn2+ 2 mM, DL-isocitrate 1.5 mM, 35 mM Tris-HCl pH 7.5, 25°C, varied: cofactor.

Substrate in data set [4]: O=C(O)CC(C(=O)O)C(O)C(=O)O
In words: purified protein. It is filed as biochemical, Congregibacter litoralis. As to conditions: Mn2+ 2 mM, NAD+ 1 mM, 35 mM Tris-HCl pH 7.5, 25°C.

Substrate in data set [5]: NC(=O)c1ccc[n+]([C@@H]2O[C@H](COP(=O)(O)OP(=O)(O)OC[C@H]3O[C@@H](n4cnc5c(N)ncnc54)[C@H](OP(=O)(O)O)[C@@H]3O)[C@@H](O)[C@H]2O)c1
Briefly: purified protein. It is filed as biochemical, Congregibacter litoralis. The conditions noted are these: Mn2+ 2 mM, DL-isocitrate 1.5 mM, 35 mM Tris-HCl pH 7.5, 25°C, varied: cofactor.

For “Congregibacter litoralis KT71 NAD+-specific isocitrate dehydrogenase (recombinant ClIDH) (enzyme)”, the stoichiometry N in data set [1] and in data set [2] was 6 each time.

B1: ClIDH (Congregibacter litoralis KT71) (protein)
chain: MSNKIKVEKPLVILHGDEMAQIAFERLLEQFVTSRLDINLLEVDLSAEKRFTTNGQVVLDAIDALIEHGVGIKNAGMTVNRSQLDELLAKYPDVKESELDKLATKSPNGAIRKGIGGNITREDIEFQNLTSVRPDWIDRDIEVDTMDSGGLDFSYSELSNATGVAKVMFVGSSGDPVELHRRTLKKGDPWMLANNSLEEVEAWAHRFFQRALDEKRDIYLGLKDTVVPGYDGVMRAAIEAIYERDYKEKVAAAGLKYHYELIDAQAARIVSNPPERALWGVPDNVSGMKLYKLVQQLKHYGLPERKANVSISRMSAGGGDQYGSYNTPAPEDGIIKVVVDGVEKHARMVKANDPILFMSNDRDAIKDWVKQVFKDASINKKEVYFGLKREFVNYDEVYSSIILEIRKELAALDTPPPSFMIMRPSRQLSKMICDPPRWGLYPAQNLDGDIFSDISAALGGSLATASSVIKSKDGTLLYEAPHGTAHDLYLRYLETDGKEAHFNSSALIFAVANALEEMARREENEALADYAQRLKAALIDTVAQGTITGDLKGKTLDPESENVVDMYGFLDAIEANLNAS
notes: full length 580 residues, 6xHis tag (pET-28b, upstream, kept), E. coli Rosetta (DE3), about 64 kDa subunit, homohexamer
On to B1, for which, in the data set “purified protein [3]”, the Km is 309.1 ± 11.2 µM, the kcat was found to be 84.7 s⁻¹ and the catalytic efficiency (kcat/Km) was 270000 M⁻¹ s⁻¹. Moreover, the Km in “purified protein [4]” worked out at 90.8 µM.

B2: ClIDH (Congregibacter litoralis KT71; D487R/L488H) (protein)
chain: MSNKIKVEKPLVILHGDEMAQIAFERLLEQFVTSRLDINLLEVDLSAEKRFTTNGQVVLDAIDALIEHGVGIKNAGMTVNRSQLDELLAKYPDVKESELDKLATKSPNGAIRKGIGGNITREDIEFQNLTSVRPDWIDRDIEVDTMDSGGLDFSYSELSNATGVAKVMFVGSSGDPVELHRRTLKKGDPWMLANNSLEEVEAWAHRFFQRALDEKRDIYLGLKDTVVPGYDGVMRAAIEAIYERDYKEKVAAAGLKYHYELIDAQAARIVSNPPERALWGVPDNVSGMKLYKLVQQLKHYGLPERKANVSISRMSAGGGDQYGSYNTPAPEDGIIKVVVDGVEKHARMVKANDPILFMSNDRDAIKDWVKQVFKDASINKKEVYFGLKREFVNYDEVYSSIILEIRKELAALDTPPPSFMIMRPSRQLSKMICDPPRWGLYPAQNLDGDIFSDISAALGGSLATASSVIKSKDGTLLYEAPHGTAHRHYLRYLETDGKEAHFNSSALIFAVANALEEMARREENEALADYAQRLKAALIDTVAQGTITGDLKGKTLDPESENVVDMYGFLDAIEANLNAS
notes: as for B1
B2: in the data set “purified protein [3]”, the Km is 663.8 ± 48.6 µM, the kcat stood at 9.7 s⁻¹ and the kcat/Km turned out to be 15000 M⁻¹ s⁻¹. Moreover, in “purified protein [5]”, the Km came out at 156.7 ± 4.8 µM, the kcat turned out to be 55.1 s⁻¹ and the kcat/Km was 350000 M⁻¹ s⁻¹.
